B1: Speckle-type POZ protein (Homo sapiens), O43791 (parent)
chain: MSRVPSPPPPAEMSSGPVAESWCYTQIKVVKFSYMWTINNFSFCREEMGEVIKSSTFSSGANDKLKWCLRVNPKGLDEESKDYLSLYLLLVSCPKSEVRAKFKFSILNAKGEETKAMESQRAYRFVQGKDWGFKKFIRRDFLLDEANGLLPDDKLTLFCEVSVVQDSVNISGQNTMNMVKVPECRLADELGGLWENSRFTDCCLCVAGQEFQAHKAILAARSPVFSAMFEHEMEESKKNRVEINDVEPEVFKEMMCFIYTGKAPNLDKMADDLLAAADKYALERLKVMCEDALCSNLSVENAAEILILADLHSADQLKTQAVDFINYHASDVLETSGWKSMVVSHPHLVAEAYRSLASAQCPFLGPPRKRLKQS

The variants in the assay derive from B1. The following applies: with cul3_human CUL3, Q13618.
Take M233E: the “effect of a mutation on the interaction” value is listed as “disrupting interaction strength”.

Values taken from IntAct's records for PubMed 22632832.
